# From the nanobody polyreactivity screen of Harvey et al. (2022)
# Test: yeast display, Sf9 membrane polyspecificity reagent, FACS + sequencing; frameworks hold sequencing errors
# Procedure, shortened: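 Using colony PCR, genes from sorted yeast display clones were amplified, then sequenced on MiSeq at 2 × 250 and filtered by CDR length. The clones had been stained with 10% biotinylated, detergent-solubilized Sf9 membrane reagent for 1 hour at 4 °C and sorted by FACS into low and high (top ~1%) gates on anti-HA and streptavidin fluorescence. Polyreactivity labels come from the gate of origin.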
sequence,measurement,value
QVQLVESGGGLVQAGGSLRLSCAASGRIFVSNGMGWYRQAPGKESELVAVIRSSTGSTYYADSVKGRFTISRDNAKNTVYLQMNSLKPEDTAVYYCAAPNPFFEPSEYDYWAQGTQVTVSS,polyreactivity (PSR sort gate),low polyreactivity
QVQLVESGGGLVQAGGSLRLCCASSGSTFTYNTMGWYRQAPGKERELVAAISFSSGRTYYADSVKVRFTISRYNAINTVYLHINSLKPEDTAVYYCNARTWETLRGYDYWGQGTQVTVSS,polyreactivity (PSR sort gate),high polyreactivity
QVQLVESGGGLVQAGGSLRLSCAASGRIFRRNTMGWYRQAPGKERELVAAITSSGGSTYADSVKGRFTISRDNAKNTVYLQMKSLKPEDTAVYYCATYVAYHRGYRTYDHWGQGTQVTVSS,polyreactivity (PSR sort gate),low polyreactivity
QVQLVESGGGLVQAGGSLRLSCAASGITFIYYAMGWYRQAPGKERELVAAISTGGSTYYADSVKGRCTISRDNAKNTVYLQRKSLKPEDTAVYFWNALRKSLRGGDYWGQGTQVTVSS,polyreactivity (PSR sort gate),high polyreactivity
QVQLVETGGGLVQAGGSHRLSCAASGSIFSSYVMGWYRQAPGKERELVDAISSGGRTYYADSVKGRFTISRDNAKNTVYLQMNSLKPDETAVYYCAARTRRYPRPGLSPGNYWGQGTQVTVSS,polyreactivity (PSR sort gate),high polyreactivity
QVQLVESGGGLVQAGGSLRLSCAASGLTFSVYTMGWYRQAPGKERELVAAITTSGGRTYYADSVKGRFTISRDNAKNTVYLQMNSLKPEDTAVYYCAAVRTGDTTGTMGYWGQGTQVTVSS,polyreactivity (PSR sort gate),high polyreactivity
QVQLVESGGGLVQAGGSLRLSCAASGRTFRFYAMGWSRQAPGKERELGAAITGSGGSTYYADSVKGRFTISRDNAKNTVYLQMNCLKPEDTAVYYCAASRWREYHASKMDYWGQGTQVTVSS,polyreactivity (PSR sort gate),low polyreactivity
QVQLVESGGGLVQAGGSLRLSCAASGSIFSPYAMGWYRQAPGKERELVAAIRWGGGGTYADSVKGRFTISRDNAKNTVYLQMNSLKPEDTAVYYCAARRRSRRGYDYWGQGTQVTVSS,polyreactivity (PSR sort gate),high polyreactivity
QVQLVESGGGLVQAGGSLRLSCAASGSTFKAYAMGWYRQAPGKERELVAAITNSDGDTYYADSVKGRFTISRDNAKNTVYLQMNSLKAEDTAVYYCNALYFLKKLYDYWGQGTQVTVSS,polyreactivity (PSR sort gate),low polyreactivity
QVQLVESGGGLVQAGGSLRLSCAASGRTFVWNAMGWYRQAPGKERELVAAISSSGGSTYYADSVKGRFTISRDNAKNTVYLQMNSLKPEDTAVYYCAARRASGFDWGQGTQVTVSS,polyreactivity (PSR sort gate),high polyreactivity
QVQLVESGGGLVQAGGSLRLSCAPSGSIFGVYAMGWYRQAPGKERELVDTISWSAGSTYYADSVKGRFTISRDNAKNTVYLQMNSLKPVDTAVYYCGAGVRWLGLYDLFTFDYWGQGTQVTVSS,polyreactivity (PSR sort gate),low polyreactivity
QVQLVESGGGLVQAGGSLRLSCAASGGIFEANVMGWYRQAPGKERELVAAITSGGSTNYADSVKGRFTISRDNAKNTVYLQMNSLKPEDTAVYYCAADRPDGWVDYWGQGTQVTVSS,polyreactivity (PSR sort gate),low polyreactivity
QVQLVESGGGLVQAGGSLRLSCAASGYIFGYNTMGWYRQAPGKERELVATINWRGSRTYYADSVKARFTISLDNAKNTVYLQMNSLKPEDTAVYYCNADHQFRSSVSGDHDYWGQGTQVTVSS,polyreactivity (PSR sort gate),high polyreactivity
QVQLVESGGGLVQAGGTLRLSCAASGFTFYSNTMGWYRQAPGKERELFAAITRTGVSTYYADSVKGRFTISRDNAKNTVYLQMNSLKPEDTAVYYCAALVKGQGTVHRYYYLGQGTQVTVSS,polyreactivity (PSR sort gate),high polyreactivity
QVQLVESGGGLVQAGGSLRLSCAASGSIFRSYAMGWYRQAPGKERELVAAITNGGSTYYADSVKGRFTISRDNAKNTVYLQINSLKPEDTAVYYCAAARYTYWFYLVKKTGYYWGQGTQVTVSS,polyreactivity (PSR sort gate),high polyreactivity
QVQLVESGGGLVQAGGSLRLSCAASGRIFQKNAMGWYRQPPGKERELVAAISGSGSTTNYADSVKGRFTISRDNAKNTVDLQMNSLKPEDTAVFYCGTGKRGVSGRGFRYDYWGQGTQVTVSS,polyreactivity (PSR sort gate),high polyreactivity
QVQHVESGRGLVQAGGSLRLSCPASGSTFSYYAMGWYRQAPGKERELVASISSTTGSTYYADSVKGRFTISRDNAKNTVYVKMNSVKPEDTAVYYCAADIPPGGGDYWGQGSQVTVSS,polyreactivity (PSR sort gate),low polyreactivity
QVQLVESGGGLVQAGGSLRLSCAASGFTFWLYAMGWYRQAPGKERELVAAITSGGGTYYADSVKGRFTISRDNEKNTVYLQMNSLKPEDTAVYYCAAEWVRDYEQGVSSFGFYYWGQGTQVTVSS,polyreactivity (PSR sort gate),low polyreactivity
QVQLVESGGGLVQAGGSLRLSCAASGSIFYGYDMGWYRQAPGKERELVAAITIGGGTTYYADSVKGRFTISRDNAKNTVYLQMNSLKPEDTAVYYCAAEFYYTIYSNKVGYDYWGQGTQVSVSS,polyreactivity (PSR sort gate),high polyreactivity
QVQLVESGGGLVQAGGSLRLSCAASGRILVWYAMAWYRQAPGKERELVASISSTGGSTYYADSVKGRFTISRDNAKNTVYLQMNSLKPEDTAVYYCAAVIRSQDGRGYDYWGQGTQVTVSS,polyreactivity (PSR sort gate),high polyreactivity
QVQHVESGGGLVQAGGSLRLICAASGRIFTRYAMGWYRQAPGKERELVAAISASGGSTHYADSVKGRFTISRDNAKNTVYLQMNSLKPEDTAVYYCADAYVSRNSGFGYWGQGTQVTVSS,polyreactivity (PSR sort gate),low polyreactivity
QVQLQESGGGLVKAGGSLRLSCAASGNISPSDAMGWYRQAPGEERDLVASNAYSAITYYADGVKGRYTISRDNAKNTVYLQMNSLKPEDTEVYYCAVYQFTYPVFPAYWGQGTQVTVSS,polyreactivity (PSR sort gate),low polyreactivity
